Measured values as given in publication PMC12857291.

Tests used:
[1] = target: MeCP2-MBD aromatic cage mutants, W104, F132, Y141, F142 and F155 to alanine (group as printed for the range of KD limits); assay: ITC; MicroCal PEAQ-ITC, 15 °C, 750 rpm; peptide (1.5 to 2 mM) in the syringe injected into protein (80 to 100 μM) in the cell; 50 mM HEPES pH 7.5, 200 mM NaCl, 5% glycerol; single-binding site model
[2] = target: MeCP2-MBD domain wild-type, C-terminal 6xHis-tagged (UniProt P51608); assay: as above
Sequence of MeCP2-MBD domain wild-type, C-terminal 6xHis-tagged (P51608 90-162): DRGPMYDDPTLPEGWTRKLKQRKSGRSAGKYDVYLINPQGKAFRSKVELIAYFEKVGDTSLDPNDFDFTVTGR

Kd [1]: > 1000 µM
Kd [2]: 5.2 µM
Substance: histone H3(15-36)K27me3 peptide (from UniProt P68431 16-37)
